Experimental data taken from paper PMC6862324.

Molecular target: T1, FLAG-tagged human NLRP1 (human), Q9C000
T1 chain: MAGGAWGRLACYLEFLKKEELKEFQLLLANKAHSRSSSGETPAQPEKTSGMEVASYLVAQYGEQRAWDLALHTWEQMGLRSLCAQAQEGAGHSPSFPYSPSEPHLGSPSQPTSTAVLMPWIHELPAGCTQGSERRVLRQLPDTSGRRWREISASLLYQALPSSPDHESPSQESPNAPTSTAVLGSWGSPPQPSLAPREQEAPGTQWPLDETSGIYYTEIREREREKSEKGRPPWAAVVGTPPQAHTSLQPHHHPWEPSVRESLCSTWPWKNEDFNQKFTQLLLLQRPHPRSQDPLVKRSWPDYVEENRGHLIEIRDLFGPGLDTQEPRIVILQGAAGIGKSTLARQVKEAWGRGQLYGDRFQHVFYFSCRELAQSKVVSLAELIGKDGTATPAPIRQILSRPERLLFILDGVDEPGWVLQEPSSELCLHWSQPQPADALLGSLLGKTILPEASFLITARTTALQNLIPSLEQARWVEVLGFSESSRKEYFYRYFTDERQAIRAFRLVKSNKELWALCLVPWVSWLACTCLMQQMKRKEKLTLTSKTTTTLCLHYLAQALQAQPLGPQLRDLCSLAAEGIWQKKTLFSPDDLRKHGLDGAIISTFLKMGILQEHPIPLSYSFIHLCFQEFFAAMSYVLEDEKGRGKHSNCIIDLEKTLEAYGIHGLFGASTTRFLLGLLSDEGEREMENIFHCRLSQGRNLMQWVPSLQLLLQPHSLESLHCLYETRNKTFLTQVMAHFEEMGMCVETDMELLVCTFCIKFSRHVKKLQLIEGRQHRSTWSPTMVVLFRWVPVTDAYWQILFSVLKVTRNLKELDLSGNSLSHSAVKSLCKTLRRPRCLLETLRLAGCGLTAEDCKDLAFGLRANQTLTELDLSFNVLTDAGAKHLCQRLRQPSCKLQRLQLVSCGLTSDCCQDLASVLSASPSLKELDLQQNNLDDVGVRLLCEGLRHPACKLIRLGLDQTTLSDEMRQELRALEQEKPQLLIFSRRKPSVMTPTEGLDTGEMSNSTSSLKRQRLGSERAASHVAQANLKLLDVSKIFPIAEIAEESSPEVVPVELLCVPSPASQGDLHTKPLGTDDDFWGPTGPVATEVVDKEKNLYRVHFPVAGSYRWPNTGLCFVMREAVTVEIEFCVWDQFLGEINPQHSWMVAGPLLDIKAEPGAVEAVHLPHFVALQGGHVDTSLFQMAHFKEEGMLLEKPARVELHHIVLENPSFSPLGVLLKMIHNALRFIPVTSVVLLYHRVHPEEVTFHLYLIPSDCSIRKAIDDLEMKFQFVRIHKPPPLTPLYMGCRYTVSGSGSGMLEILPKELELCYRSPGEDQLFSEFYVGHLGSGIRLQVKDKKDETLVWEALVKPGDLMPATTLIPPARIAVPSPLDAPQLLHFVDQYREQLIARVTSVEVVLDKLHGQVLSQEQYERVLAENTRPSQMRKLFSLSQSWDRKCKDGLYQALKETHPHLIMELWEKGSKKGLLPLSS
Test: co-IP
Details: remark: other sources report otherwise

B1: endogenous DPP9, Q86TI2 1-863 (enzyme)
chain: MATTGTPTADRGDAAATDDPAARFQVQKHSWDGLRSIIHGSRKYSGLIVNKAPHDFQFVQKTDESGPHSHRLYYLGMPYGSRENSLLYSEIPKKVRKEALLLLSWKQMLDHFQATPHHGVYSREEELLRERKRLGVFGITSYDFHSESGLFLFQASNSLFHCRDGGKNGFMVSPMKPLEIKTQCSGPRMDPKICPADPAFFSFINNSDLWVANIETGEERRLTFCHQGLSNVLDDPKSAGVATFVIQEEFDRFTGYWWCPTASWEGSEGLKTLRILYEEVDESEVEVIHVPSPALEERKTDSYRYPRTGSKNPKIALKLAEFQTDSQGKIVSTQEKELVQPFSSLFPKVEYIARAGWTRDGKYAWAMFLDRPQQWLQLVLLPPALFIPSTENEEQRLASARAVPRNVQPYVVYEEVTNVWINVHDIFYPFPQSEGEDELCFLRANECKTGFCHLYKVTAVLKSQGYDWSEPFSPGEDEFKCPIKEEIALTSGEWEVLARHGSKIWVNEETKLVYFQGTKDTPLEHHLYVVSYEAAGEIVRLTTPGFSHSCSMSQNFDMFVSHYSSVSTPPCVHVYKLSGPDDDPLHKQPRFWASMMEAASCPPDYVPPEIFHFHTRSDVRLYGMIYKPHALQPGKKHPTVLFVYGGPQVQLVNNSFKGIKYLRLNTLASLGYAVVVIDGRGSCQRGLRFEGALKNQMGQVEIEDQVEGLQFVAEKYGFIDLSRVAIHGWSYGGFLSLMGLIHKPQVFKVAIAGAPVTVWMAYDTGYTERYMDVPENNQHGYEAGSVALHVEKLPNEPNRLLILHGFLDENVHFFHTNFLVSQLIRAGKPYQLQIYPNERHSIRCPESGEHYEVTLLHFLQEYL
fold reduction of binding with VbP (10 uM, in the lysate) against DMSO: 2 fold
